The results in this text go back to article PMC9378516 (Journal of molecular biology, 2022).

The data set deals with the molecule itself. The data set is described as follows: AUC.

B1: TRF2 (hTERF2), full-length construct, residues 5-542 (natural protein, human, UniProt Q15554-3 5-542, looked up)
chain: AGTAGPASGPGVVRDPAASQPRKRPGREGGEGARRSDTMAGGGGSSDGSGRAAGRRASRSSGRARRGRHEPGLGGPAERGAGEARLEEAVNRWVLKFYFHEALRAFRGSRYGDFRQIRDIMQALLVRPLGKEHTVSRLLRVMQCLSRIEEGENLDCSFDMEAELTPLESAINVLEMIKTEFTLTEAVVESSRKLVKEAAVIICIKNKEFEKASKILKKHMSKDPTTQKLRNDLLNIIREKNLAHPVIQNFSYETFQQKMLRFLESHLDDAEPYLLTMAKKALKSESAASSTGKEDKQPAPGPVEKPPREPARQLRNPPTTIGMMTLKAAFKTLSGAQDSEAAFAKLDQKDLVLPTQALPASPALKNKRPRKDENESSAPADGEGGSELQPKNKRMTISRLVLEEDSQSTEPSAGLNSSQEAASAPPSKPTVLNQPLPGEKNPKVPKGKWNSSNGVEEKETWVEEDELFQVQAAPDEDSTTNITKKQKWTVEESEWVKAGVQKYGEGNWAAISKNYPFVNRTAVMIKDRWRTMKRLGMN
Regarding B1, the “stoichiometry N” value is 2.
